Data on five molecules can be found in US20140087995A1 (published 2014).

Numbered stars: 1 amine (or outer) side, 2 acyl side, 3 side chain; on linkers, the order of the positions; unused ones are H or OH. Bridge positions count the residues as written; N and C are the ends. Side chains are listed from the residue outwards. Ends that are not written are not given here. * marks the point of attachment. C20 diacid = O=C(O)CCCCCCCCCCCCCCCCCCC(=O)*; γGlu = O=C(O)[C@H](CCC(=O)[*:2])N[*:1]

Sequences and labels used below:
T1: human amylin receptor (Amylin 3(a) receptor: human calcitonin receptor co-expressed with RAMP-3) (human, UniProt P30988 25-474; O60896 24-148, limits assumed)
T1 construct: whole, on cells; Used as cell membranes prepared from the Amylin 3(a)/CRE-luc BHK cells (Assay V); the complex is called the human amylin receptor; also called hAmylin-R; hAmylinR
T1 sequence (looked up) 1: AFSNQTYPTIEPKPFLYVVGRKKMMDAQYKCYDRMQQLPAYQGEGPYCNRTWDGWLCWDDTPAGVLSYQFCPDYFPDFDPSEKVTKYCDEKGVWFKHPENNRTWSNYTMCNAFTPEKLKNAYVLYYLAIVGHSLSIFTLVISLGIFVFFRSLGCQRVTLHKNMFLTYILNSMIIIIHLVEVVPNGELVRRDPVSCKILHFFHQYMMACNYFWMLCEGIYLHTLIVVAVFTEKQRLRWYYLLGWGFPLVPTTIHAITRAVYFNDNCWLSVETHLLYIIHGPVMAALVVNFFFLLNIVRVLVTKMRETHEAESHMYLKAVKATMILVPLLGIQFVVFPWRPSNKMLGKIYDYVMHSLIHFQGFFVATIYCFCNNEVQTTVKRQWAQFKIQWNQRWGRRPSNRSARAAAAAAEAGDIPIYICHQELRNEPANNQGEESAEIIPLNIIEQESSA
T1 sequence (looked up) 2: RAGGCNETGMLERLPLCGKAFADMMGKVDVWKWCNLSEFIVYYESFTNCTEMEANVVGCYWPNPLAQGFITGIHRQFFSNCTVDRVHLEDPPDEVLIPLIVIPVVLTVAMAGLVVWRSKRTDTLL

B1: N^ε1-[(4S)-4-carboxy-4-(19-carboxynonadecanoylamino)butanoyl]-[Asp14,Arg17,Pro21,Pro27,Pro34,Arg35]-h-amylin (peptide)
peptide: K([γGlu-C20 diacid])CNTATCATQRLADFLRHSSPNFGAIPSSTNVGPRTY-NH2
modifications: disulfide 2-7; N-terminus assumed
SMILES: CC[C@H](C)[C@H](NC(=O)[C@H](C)NC(=O)CNC(=O)[C@H](Cc1ccccc1)NC(=O)[C@H](CC(N)=O)NC(=O)[C@@H]1CCCN1C(=O)[C@H](CO)NC(=O)[C@H](CO)NC(=O)[C@H](Cc1c[nH]cn1)NC(=O)[C@H](CCCNC(=N)N)NC(=O)[C@H](CC(C)C)NC(=O)[C@H](Cc1ccccc1)NC(=O)[C@H](CC(=O)O)NC(=O)[C@H](C)NC(=O)[C@H](CC(C)C)NC(=O)[C@H](CCCNC(=N)N)NC(=O)[C@H](CCC(N)=O)NC(=O)[C@@H](NC(=O)[C@H](C)NC(=O)[C@@H]1CSSC[C@H](NC(=O)[C@@H](N)CCCCNC(=O)CC[C@H](NC(=O)CCCCCCCCCCCCCCCCCCC(=O)O)C(=O)O)C(=O)N[C@@H](CC(N)=O)C(=O)N[C@@H]([C@@H](C)O)C(=O)N[C@@H](C)C(=O)N[C@@H]([C@@H](C)O)C(=O)N1)[C@@H](C)O)C(=O)N1CCC[C@H]1C(=O)N[C@@H](CO)C(=O)N[C@@H](CO)C(=O)N[C@H](C(=O)N[C@@H](CC(N)=O)C(=O)N[C@H](C(=O)NCC(=O)N1CCC[C@H]1C(=O)N[C@@H](CCCNC(=N)N)C(=O)N[C@H](C(=O)N[C@@H](Cc1ccc(O)cc1)C(N)=O)[C@@H](C)O)C(C)C)[C@@H](C)O
notes: modifications are with respect to human amylin
B2: N^ε1-[(4S)-4-carboxy-4-(19-carboxynonadecanoylamino)butanoyl]-[Asp14,Arg17,Pro21,Pro27,Pro34,Glu35]-h-amylin (peptide)
peptide: K([γGlu-C20 diacid])CNTATCATQRLADFLRHSSPNFGAIPSSTNVGPETY-NH2
modifications: disulfide 2-7; N-terminus assumed
SMILES: CC[C@H](C)[C@H](NC(=O)[C@H](C)NC(=O)CNC(=O)[C@H](Cc1ccccc1)NC(=O)[C@H](CC(N)=O)NC(=O)[C@@H]1CCCN1C(=O)[C@H](CO)NC(=O)[C@H](CO)NC(=O)[C@H](Cc1c[nH]cn1)NC(=O)[C@H](CCCNC(=N)N)NC(=O)[C@H](CC(C)C)NC(=O)[C@H](Cc1ccccc1)NC(=O)[C@H](CC(=O)O)NC(=O)[C@H](C)NC(=O)[C@H](CC(C)C)NC(=O)[C@H](CCCNC(=N)N)NC(=O)[C@H](CCC(N)=O)NC(=O)[C@@H](NC(=O)[C@H](C)NC(=O)[C@@H]1CSSC[C@H](NC(=O)[C@@H](N)CCCCNC(=O)CC[C@H](NC(=O)CCCCCCCCCCCCCCCCCCC(=O)O)C(=O)O)C(=O)N[C@@H](CC(N)=O)C(=O)N[C@@H]([C@@H](C)O)C(=O)N[C@@H](C)C(=O)N[C@@H]([C@@H](C)O)C(=O)N1)[C@@H](C)O)C(=O)N1CCC[C@H]1C(=O)N[C@@H](CO)C(=O)N[C@@H](CO)C(=O)N[C@H](C(=O)N[C@@H](CC(N)=O)C(=O)N[C@H](C(=O)NCC(=O)N1CCC[C@H]1C(=O)N[C@@H](CCC(=O)O)C(=O)N[C@H](C(=O)N[C@@H](Cc1ccc(O)cc1)C(N)=O)[C@@H](C)O)C(C)C)[C@@H](C)O
notes: as for B1
B3: N^ε1-[(4S)-4-carboxy-4-(19-carboxynonadecanoylamino)butanoyl]-[Glu14,Arg17,Pro21,Pro27,His34,Glu35]-h-amylin (peptide)
peptide: K([γGlu-C20 diacid])CNTATCATQRLAEFLRHSSPNFGAIPSSTNVGHETY-NH2
modifications: disulfide 2-7; N-terminus assumed
SMILES: CC[C@H](C)[C@H](NC(=O)[C@H](C)NC(=O)CNC(=O)[C@H](Cc1ccccc1)NC(=O)[C@H](CC(N)=O)NC(=O)[C@@H]1CCCN1C(=O)[C@H](CO)NC(=O)[C@H](CO)NC(=O)[C@H](Cc1c[nH]cn1)NC(=O)[C@H](CCCNC(=N)N)NC(=O)[C@H](CC(C)C)NC(=O)[C@H](Cc1ccccc1)NC(=O)[C@H](CCC(=O)O)NC(=O)[C@H](C)NC(=O)[C@H](CC(C)C)NC(=O)[C@H](CCCNC(=N)N)NC(=O)[C@H](CCC(N)=O)NC(=O)[C@@H](NC(=O)[C@H](C)NC(=O)[C@@H]1CSSC[C@H](NC(=O)[C@@H](N)CCCCNC(=O)CC[C@H](NC(=O)CCCCCCCCCCCCCCCCCCC(=O)O)C(=O)O)C(=O)N[C@@H](CC(N)=O)C(=O)N[C@@H]([C@@H](C)O)C(=O)N[C@@H](C)C(=O)N[C@@H]([C@@H](C)O)C(=O)N1)[C@@H](C)O)C(=O)N1CCC[C@H]1C(=O)N[C@@H](CO)C(=O)N[C@@H](CO)C(=O)N[C@H](C(=O)N[C@@H](CC(N)=O)C(=O)N[C@H](C(=O)NCC(=O)N[C@@H](Cc1c[nH]cn1)C(=O)N[C@@H](CCC(=O)O)C(=O)N[C@H](C(=O)N[C@@H](Cc1ccc(O)cc1)C(N)=O)[C@@H](C)O)C(C)C)[C@@H](C)O
notes: modifications are with respect to human amylin; also called compound 107
B4: N^ε1-[(4S)-4-carboxy-4-(19-carboxynonadecanoylamino)butanoyl]-[Glu14,Arg17,Pro21,Pro27,Arg34,Glu35]-h-amylin (peptide)
peptide: K([γGlu-C20 diacid])CNTATCATQRLAEFLRHSSPNFGAIPSSTNVGRETY-NH2
modifications: disulfide 2-7; N-terminus assumed
SMILES: CC[C@H](C)[C@H](NC(=O)[C@H](C)NC(=O)CNC(=O)[C@H](Cc1ccccc1)NC(=O)[C@H](CC(N)=O)NC(=O)[C@@H]1CCCN1C(=O)[C@H](CO)NC(=O)[C@H](CO)NC(=O)[C@H](Cc1c[nH]cn1)NC(=O)[C@H](CCCNC(=N)N)NC(=O)[C@H](CC(C)C)NC(=O)[C@H](Cc1ccccc1)NC(=O)[C@H](CCC(=O)O)NC(=O)[C@H](C)NC(=O)[C@H](CC(C)C)NC(=O)[C@H](CCCNC(=N)N)NC(=O)[C@H](CCC(N)=O)NC(=O)[C@@H](NC(=O)[C@H](C)NC(=O)[C@@H]1CSSC[C@H](NC(=O)[C@@H](N)CCCCNC(=O)CC[C@H](NC(=O)CCCCCCCCCCCCCCCCCCC(=O)O)C(=O)O)C(=O)N[C@@H](CC(N)=O)C(=O)N[C@@H]([C@@H](C)O)C(=O)N[C@@H](C)C(=O)N[C@@H]([C@@H](C)O)C(=O)N1)[C@@H](C)O)C(=O)N1CCC[C@H]1C(=O)N[C@@H](CO)C(=O)N[C@@H](CO)C(=O)N[C@H](C(=O)N[C@@H](CC(N)=O)C(=O)N[C@H](C(=O)NCC(=O)N[C@@H](CCCNC(=N)N)C(=O)N[C@@H](CCC(=O)O)C(=O)N[C@H](C(=O)N[C@@H](Cc1ccc(O)cc1)C(N)=O)[C@@H](C)O)C(C)C)[C@@H](C)O
notes: as for B1
B5: N^ε1-[(4S)-4-carboxy-4-(19-carboxynonadecanoylamino)butanoyl]-[Glu14,Arg17,Pro21,Pro27,His35]-h-amylin (peptide)
peptide: K([γGlu-C20 diacid])CNTATCATQRLAEFLRHSSPNFGAIPSSTNVGSHTY-NH2
modifications: disulfide 2-7; N-terminus assumed
SMILES: CC[C@H](C)[C@H](NC(=O)[C@H](C)NC(=O)CNC(=O)[C@H](Cc1ccccc1)NC(=O)[C@H](CC(N)=O)NC(=O)[C@@H]1CCCN1C(=O)[C@H](CO)NC(=O)[C@H](CO)NC(=O)[C@H](Cc1c[nH]cn1)NC(=O)[C@H](CCCNC(=N)N)NC(=O)[C@H](CC(C)C)NC(=O)[C@H](Cc1ccccc1)NC(=O)[C@H](CCC(=O)O)NC(=O)[C@H](C)NC(=O)[C@H](CC(C)C)NC(=O)[C@H](CCCNC(=N)N)NC(=O)[C@H](CCC(N)=O)NC(=O)[C@@H](NC(=O)[C@H](C)NC(=O)[C@@H]1CSSC[C@H](NC(=O)[C@@H](N)CCCCNC(=O)CC[C@H](NC(=O)CCCCCCCCCCCCCCCCCCC(=O)O)C(=O)O)C(=O)N[C@@H](CC(N)=O)C(=O)N[C@@H]([C@@H](C)O)C(=O)N[C@@H](C)C(=O)N[C@@H]([C@@H](C)O)C(=O)N1)[C@@H](C)O)C(=O)N1CCC[C@H]1C(=O)N[C@@H](CO)C(=O)N[C@@H](CO)C(=O)N[C@H](C(=O)N[C@@H](CC(N)=O)C(=O)N[C@H](C(=O)NCC(=O)N[C@@H](CO)C(=O)N[C@@H](Cc1c[nH]cn1)C(=O)N[C@H](C(=O)N[C@@H](Cc1ccc(O)cc1)C(N)=O)[C@@H](C)O)C(C)C)[C@@H](C)O
notes: as for B1

The experiment deals with T1, human amylin receptor (Amylin 3(a) …). Nature of the experiment: SPA competition binding, displacement of 125I-rat amylin from membranes of BHK cells with human calcitonin receptor + RAMP-3 (Assay V). As for the experimental part:
The binding assay was performed using scintillation proximity assay (SPA) beads (RPNQ0001) from PerkinElmer and cell membranes from the Amylin 3(a)/CRE-luc cells (as described in Assay (II)) were used. Membranes were prepared in the following way; the cells were rinsed with PBS and incubated with Versene for approximately 5 min before harvesting. The cells were flushed with PBS and the cell-suspension was centrifuged for 5 min at 1000 rpm. Cells were homogenized (ultrathurrax) in a buffer containing 20 mM Na-HEPES and 10 mM EDTA (pH 7.4) and centrifuged at 20.000 rpm for 15 min. The resulting pellet was resuspended, homogenized and centrifuged (20.000 rpm, 15 min) in a buffer containing 20 mM Na-HEPES and 0.1 mM EDTA (pH 7.4, buffer 2). The resulting pellet was resuspended in buffer 2 and protein concentration was measured (BCA protein Assay, Pierce). The homogenate was kept cold during the whole procedure. The membranes were kept at −80° C. until use. The assay was performed in a 384 well Optiplate (PerkinElmer) in a total volume of 40 ul. Membranes were mixed with SPA beads. Final concentration of membranes 35 ng/μL final and SPA beads was 0.05 mg/well. Test-compounds were dissolved in DMSO and further diluted in assay buffer (50 mM Hepes, pH 7.4, 1 mM CaCl2, 5 mM MgCl₂, 0.1% OA and 0.02% Tween20). […] The final mixture was incubated with shaking at 400 rpm for 120 min at 25° C. prior to centrifugation (1500 rpm, 10 min). Samples were analyzed on TopCounter™ (Packard). The IC₅₀ was calculated using (one site binding competition analysis) GraphPad Prism5 as a measure of receptor affinity.
In general terms: Displacement assays read how much labelled ligand stays bound in the presence of the test substance.
In general, IC50 refers to the concentration that inhibits the measured activity by half. With B1, the IC50 stood at 0.281 nM.
For the molecule B2, the IC50 came out at 0.196 nM.
For the molecule B3, the IC50 amounted to 0.387 nM.
On to B4, for which the IC50 amounted to 0.232 nM.
For B5 the value was 0.992 nM.
